# Assay results taken from the RNAGym collection of RNA variant scans (doi:10.1073/pnas.2313332121).
# Fewer inactive variants are shown than the library holds.
# B1: TPR 5TU (parent)
# chain: GGAUCUUCUCGAUCUAACAAAAAAGACAAAUCUGCCACAAAGCUUGAGAGCAUCUUCGGAUGCAGAGGCGGCAGCCUUCGGUGGCGCGAUAGCGCCAACGUUCUCAACUAUGACACGCAAAACGCGUGCUCCGUUGAAUGGAGUUUAUCAUG
# Variants of: B1
# Assay: polymerase ribozyme fitness, log enrichment relative to wild type (log ratio); higher = more active; in vitro selection for triplet polymerase activity
# Procedure, shortened: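 Fitness compares each genotype's enrichment to that of the wild type on a logarithmic scale, averaging replicates with inverse-variance weights. The logarithm is base 2. Enrichment came from Illumina sequencing of input and output libraries after one triplicate round of in vitro selection, which included frozen incubation at −7 °C, of PCR-built, transcribed mutant libraries of each subunit of a heterodimeric triplet polymerase ribozyme. Only genotypes with ≥10 input reads and ≥1 read per output were kept.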
row,Variant,polymerase ribozyme fitness (log ratio)
1,GGAUCUUCUCGAUCUAACAAAAAAGACAAAUCUGCCACAAAGCAUGAGAGCAUCUUCGGAUGCAGAGGCGGCAGCCUUCGGUGGCGCGAUAGCGACAACGUUCUCAACUAUGACACGCAAAACGCGUGCUCCGUUGAAUGGAGUUUAUCAUG [U44A C95A],-4.11
2,GGAUCUUCUCGAUCUAACAAAAAAGACAAAUCUGCCACAAAGCAUGAGAGCAUCUUCGGAUGCAGAGGCGGCAGCCUUCGGUGGCGCGAUAGCGUCAACGUUCUCAACUAUGACACGCAAAACGCGUGCUCCGUUGAAUGGAGUUUAUCAUG [U44A C95U],-3.87
3,GGAUCUUCUCGAUCUAACAAAAAAGACAAAUCUGCCACAAAGCAUGAGAGCAUUUUCGGAUGCAGAGGCGGCAGCCUUCGGUGGCGCGAUAGCGCCAACGUUCUCAACUAUGACACGCAAAACGCGUGCUCCGUUGAAUGGAGUUUAUCAUG [U44A C54U],-3.59
4,GGAUCUUCUCGAUCUAACAAAAAAGACAAAUCUGCCACAAAGCAUGAGAGCAUCUUCGGGUGCAGAAGCGGCAGCCUUCGGUGGCGCGAUAUCGCCAACGUUCUAAACUAUGACACGCAAAACGCGUGCUCCGUUGAAUGGAGUUUAUCAUG [U44A A60G G67A G92U C105A],≤ -4.2
5,GGAUCUUCUCGAUCUAACAAAAAAGACAAAUCUGCCACAAAGCAUGAGAGCAUCUUCGGAUGCAGAGGCGGCAGCCUUCGGUGGCCCGAUAGCGCCAACGUUCUCAACUAUGACACGCACAACGCGUGCUCCGUUGAAUGGAGUUCAUCAUG [U44A G86C A120C U146C],≤ -4.2
6,GGAUCUUCUCGAUCUAACAAAAAAGACAAAUCUGCCACAAAGUUUGAGAGCAUCUUCGGAUGCAGAGGCGGCAGCCUUCGGUGGCGCAAUAGCACCAACGUUCUCAACUAUGACACGCAAAGCGCGUGCUCCGUUGAAUGGAGUUUAUCAUG [C43U G88A G94A A122G],≤ -4.2
7,GGAUCUUCUCGAUCUAACAAAAAAGACAAAUCUGCCACAAAGCAUGAGAGCAUCUUCGGAUGCAGUGGCGGCAGCCUUCGGUGGAGCGAUAGCGCCAACGUUCUCAACUAUGACACGCAAAACGCGUGCUCCGUUGAAUGGAGUUUAUCAUG [U44A A66U C85A],≤ -4.2
8,GGAUCUUCUCGAUCUAACAAAAAAGACAAAUCUGCCACAAAGCAUGAGAGCAUCUUCGGAUGCACAGGCGGCAGCCUUCGGUGGCGCGUUAGCGCCAACGUUCUCAACUAUGACACGCAAAACGCGUGCUCCGUUGAAUGGAGUUUAUCAUG [U44A G65C A89U],≤ -4.2
9,GGAUCUUCUCGAUCUAACAAAAAAGACAAAUCUGCCACAAAGCAUGCGAGCGUCUUCGGAUGCAGAGGCGGCAGCCUUUGGUGGUGCGAUAGCGCCAACGUUCUCAACUAUGACACGUAAAACGCGUGCUCCGUUGAAUGGAGUUUAUCAUG [U44A A47C A52G C79U C85U C118U],≤ -4.2
10,GGAUCUUCUCGAUCUAACAAAAAAGACAAAUCUGCCACAAAGCAUGAGAGCAUCUUCGGAUGCAGAGGCCGCAGCCUUCGGUGGCGCGAUAGCGCCAACGUUCUCAACUAUGACACACAAAACGCGUGCUCCGUUUAAUGGAGUUUAUCAUG [U44A G70C G117A G136U],≤ -4.2
11,GGAUCUUCUCGAUCUAACAAAAAAGACAAAUCUGCCACAAAGCAAGCGAGCAUCUUCGGAUGCAGAGGCGGCAGCCUUCGGUGGCACGAUAGCGCCAACGUUCUCAACUAUGACACGCAAAACGCGUGCGCCGUUGAAUGGAGUUUAUCAUG [U44A U45A A47C G86A U130G],≤ -4.2
12,GGAUCUUCUCGAUCUAACAAAAAAGACAAAUCUGCCACAAAGCAUGAGAGCAUCUUAGGAUGCAGAGGCGGCAGCCUUCGGUGGCGCGAUAGAGCCAACGUUCUCAACUAUGACACGCAAAACGCGUGCUCCCUUGAAUGGAGUUUAUCAUG [U44A C57A C93A G133C],≤ -4.2
13,GGAUCUUCUCGAUCUAACAAAAAAGACAAAUCUGCCACAAAGCAUGAGAACAUCUUCGGAUGCACAGGCGGCAGCGUUCGGUGGCGCGAGAGCGCCAACGUUCUCAACUAUGACACGCAAAACGCGUGCUCCGUUGAAUGGAGUUUAUCAUG [U44A G50A G65C C76G U90G],≤ -4.2
14,GGAUCUUCUCGAUCUAACAAAAAAGACAAAUCUGCCACAAAGCAUGCGAGCAUCUACGGAUGCAGAGGCGGCAGCCUUCGGUGCCGGGAUAGCGCCAACGUUCUCAACUAUGACACGCAAAACGCGUGCUCCGUUGAAUGGAGUUUAUCAUG [U44A A47C U56A G84C C87G],≤ -4.2
15,GGAUCUUCUCGAUCUAACAAAAAAGACAAAUCUGCCACAAAGCAUGAGAGCAUCUUCGGAUGCAGAGGCGGCAGCCUUCGGUGGCGCGAUAGCGCCAACGUUCUCAACUAUGACACGCAAAACGCGUGCUCCGUUGAAUGGAGUUUAUCAUG [U44A],-3.72
16,GGAUCUUCUCGAUCUAACAAAAAAGACAAAUCUGCCACAAAGCAUGAGAGCAUCUUCGGAUGCAGAGGCGGCAGCCUUCGGUGGUGAGAUAGCGCCAACGUUCUCAACUAUGACACUCAAAACGCGUGCUCCGUUGAAUGGAGUUUAUUAUG [U44A C85U C87A G117U C149U],≤ -4.2
17,GGAUCUUCUCGAUCUAACAAAAAAGACAAAUCUGCCACAAAGCAUGCGAGCAUCUUUGGAUGCAGAGGCGGCAGCCUUCGGUGGCGCGAUAGCGCCAACGUUCUCAACUAUGACACGCAAAACGCGUCCUCCGUUGAAUGGAGUUUAUCAUG [U44A A47C C57U G128C],≤ -4.2
18,GGAUCUUCUCGAUCUAACAAAAAAGACAAAUCUGCCACAAAGCAUGAGAGCAUCUUCGGAUGCAGAGGCGGCAGCCUUCGGUGGCGCGAUAGGGCCAACGUUCUCAACUAUGGCACGCAAAACGCGUGCUCCGAUGAAUGGAGUUUAUCAUG [U44A C93G A113G U134A],≤ -4.2
19,GGAUCUUCUCGAUCUAACAAAAAAGACAAAUCUGCCACAAAGCAUGAGAACAUCUUCGGAUGCAGAGGCGGCAGCCUUCGGUGGCGCGAUAGGGCCAACGUUCUCAACUAUGACACGCAAAACGCGUGCUCCGUUGAAUGGAGUUUAUCAUG [U44A G50A C93G],≤ -4.2

row,Variant,polymerase ribozyme fitness (log ratio)
1,GGAUCUUCUCGAUCUAACAAAAAAGACAAAUCUGCCACAAAGCAUGAGAGCAUCUUCGGAUGCAGAGGCGGCAGCCUUCGGUGGCGCGAUAGUGCCAACGUUCUCAACUAUGACACGCAGAACGCGUGCUCCGUUGAAUGGAGUUUAUCAUG [U44A C93U A120G],-4.11
2,GGAUCUUCUCGAUCUAACAAAAAAGACAAAUCUGCCACAAAGUUUGAGAGCAUCUUCGGAUGCAGAGGCGGCAGCCUUCUGUGGCGCGAUAGGGCCAAGGUUCUCAACUAUGACACGCAAAACGCGUGCUCCGUUGAAUGGAGUUUAUCAUG [C43U G80U C93G C99G],≤ -4.2
3,GGAUCUUCUCGAUCUAACAAAAAAGACAAAUCUGCCACAAAGCAUGAGAGCAUCUUCGGAUGCAGAGGCGGCAGCCUUCGGUGGCGCGAUAGCGCCAACGUUGUCAACUAUGACUCGCAAAACGCGUGCUCCGUUGAAUGGAGUUUAUCAUG [U44A C103G A115U],≤ -4.2
4,GGAUCUUCUCGAUCUAACAAAAAAGACAAAUCUGCCACAAAGUUUGAGAGCAACUUCGGAUGCAGAGGCGGCAGCCUUCGGUGGCGCGAUAGCGCCAACGUUCUCAACUAUGACACGCAAAACGCGUGCUCCGUUGAAUGGAGUUUAUCAUG [C43U U53A],≤ -4.2
5,GGAUCUUCUCGAUCUAACAAAAAAGACAAAUCUGCCACAAAGCAUGAGAGCAUCUUCGGAUGCAGAGGCGGCAGCUUUCGGUGGCGAGAUAGCGCCAACGUUCUAAGCUAUGACACGCAAAACGCGAGCUCCGUUGAAUGGAGUCUAUCAUU [U44A C76U C87A C105A A107G U127A U145C G152U],≤ -4.2
6,GGAUCUUCUCGAUCUAACAAAAAAGACAAAUCUGCCACAAAGUUAGAGAGCAUCUUCGGAUGCAGAGGCGGCAGCCUUCGGUGGCACGAUAGCGCCAACGUUCUCAACUAUGACCCGGAAAACGCGUGCUCCGUUGAAUGGAGUUUAUCAUG [C43U U45A G86A A115C C118G],≤ -4.2
7,GGAUCUUCUCGAUCUAACAAAAAAGACAAAUCUGCCACAAAGCAUGAGAGCAUCUUGGGAUGCAGAGGCCGCAGCCUUCGGUGGCGCGAUAGCGCUAACGUUCUCAUCUAUGACACGCAAAACGCGUGCUCCGUUGAAUGGAGUUUAUGCUG [U44A C57G G70C C96U A107U C149G A150C],≤ -4.2
8,GGAUCUUCUCGAUCUAACAAAAAAGACAAAUCUGCCACAAAGCAUGAGAGCAGCUUCGGAUGCAGAGGCGGCAGCCUUCGGUGGCGCGAUAGCGCCAACGUUCUCAACUAUGACACGCAAAACGCGUGCUCCGUUGAAUGGAGUUUAUCAUG [U44A U53G],≤ -4.2
9,GGAUCUUCUCGAUCUAACAAAAAAGACAAAUCUGCCACAAAGUUGCAGUGCAUCUUCGGAUGCAGAGGCGGCAGCCUUCGGAGGCGCGUUAGCGCCAACGUUCUCAAGUAUGACACGCAAAACGCGUGCUCCGUUGAAUGGAGUUUAUCAUG [C43U U45G G46C A49U U82A A89U C108G],≤ -4.2
10,GGAUCUUCUCGAUCUAACAAAAAAGACAAAUCUGCCACAAAGCAUGAGAGCAUCUUCGGAUGCAGAGGCGGCAGCCUUCGGUGGGGCGAUAGCGCCAACGUUCUCAACGAUGACACGCAAAACGCGUGCUCCGUUGAAUGGAGUUCAUCAUG [U44A C85G U109G U146C],≤ -4.2
11,GGAUCUUCUCGAUCUAACAAAAAAGACAAAUCUGCCACAAAGCAUGAGAGCAUCUUCGGAUGCAGAGGCGGCAGCCUUCGGUGGCGCGAUAGCGUCUACGUUCUCAACUAUGACACGCAAAACGCGUGCUCCGUUGAAUGGAGUUUAUCAUG [U44A C95U A97U],≤ -4.2
12,GGAUCUUCUCGAUCUAACAAAAAAGACAAAUCUGCCACAAAGUUGGAGAGCAUCUUCGGAUGCAGAGGCGGCAGCCUUCGGUGGCGCGAUAGCGCCAACGUUCUCAACUAUGACACGCAAAACGCGUGCUACGUUUAAUGGAGUUUAUCAUG [C43U U45G C131A G136U],≤ -4.2
13,GGAUCUUCUCGAUCUAACAAAAAAGACAAAUCUGCCACAAAGCAUGAGAGCAUCUUCGGAUGCAGAGGCGGCAGCCUUCGGUGGAGCGAUAGCGCGAACGUUCUCAACUAUGACACGCAAAACGCGUGCUCCGUUGAAUGGAGUUUAUCAUG [U44A C85A C96G],≤ -4.2
14,GGAUCUUCUCGAUCUAACAAAAAAGACAAAUCUGCCACAAAGCAUGAGAGCAUCUUCGGAUGCAGAGGCGGCAGCCUUCGGUGGCGCGAUAGCACCAACGUUCUCAACUAUGACAUGCAAAACGCGUGCUCCGUUGAAUGGAGUUUAUCAUU [U44A G94A C116U G152U],-4.16
15,GGAUCUUCUCGAUCUAACAAAAAAGACAAAUCUGCCACAAAGCAUGAGCGCAUGUUUCGAUGCAGAGGCGGCAGCCUUCGGUGGCGCGAUAGCGGUAACGUUCUCAACUAUGACACGCAAAACGCGUGCUCCGUUGAAUGGAGUUUAUCAUG [U44A A49C C54G C57U G58C C95G C96U],≤ -4.2
16,GGAUCUUCUCGAUCUAACAAAAAAGACAAAUCUGCCACAAAGCAUGAGAGCAUCUUCGGAUGCAGAGGCGGCAGCCUUCGGUGGCGCGAUAGCGCCAACGUUCUCAUCUAUGACACGCAAAACGCGUGCUCCGUUGAAUGGAGUUUAUCAUG [U44A A107U],-0.956
17,GGAUCUUCUCGAUCUAACAAAAAAGACAAAUCUGCCACAAAGCAUGAGAGCAUCUUCGGAUGCAGAGGCGGCAGCCUUCGGUGGCGCGAUAGCGCCAACGUUCUCAACUAUGACACGCAAAACGCGUGCUCCGUUGUAUGGAGUUUAUCAUG [U44A A137U],-3.68
18,GGAUCUUCUCGAUCUAACAAAAAAGACAAAUCUGCCACAAAGCAUGAGAGCAUCUUCGGAUGCAGAGGCGGAAGCCUUCGGUGGCGUGAUAGCGCCAAGGUUCUCAACUAUGACACGCAAAACGCGUGCUCCGUAGAAUGGAGUUUAUCAUG [U44A C72A C87U C99G U135A],≤ -4.2
19,GGAUCUUCUCGAUCUAACAAAAAAGACAAAUCUGCCACAAAGCAUGAGAUCAUCUUCGGAUGCAGAGGCGGCAGGCUUUGGUGGCGAGAUAGCGCCAACGUUCUCAACUAUGACACGCAAAACGUGUGCUCCGUUGAAUGGAGUUUAUCAUG [U44A G50U C75G C79U C87A C125U],≤ -4.2
